± gives the standard deviation of the averaged measurements.

For 116 sequences, protein stability index results are on record in the supplement of paper PMC10724198.
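Further: PSI is a weighted mean of sequencing reads over stability bins, variants kept only with over 10 reads, mCherry proximal and sfGFP distal, peptide attached via GGGS linker.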

This series deals with Saccharomyces cerevisiae. As to the kind of experiment: protein stability index of tFT-peptide fusion (C-terminal peptide) (PSI (0-1 scale)); higher = more stable (slower turnover). The following applies: genetic background: wild type; temperature: 30 C.
As for STVRFGAPDYVH, the protein stability index was determined as 0.6774 ± 0.0026.

Sequence SVAPRLFSPSHP registered a protein stability index of 0.6548 ± 0.0055.

The sequence SVDMYTNNYKIH yielded a protein stability index of 0.549 ± 0.038.

SVESEWHLLLTP: the protein stability index turned out to be 0.744 ± 0.013.

SVFECKYNTLGR came in with a protein stability index of 0.671 ± 0.017.

As for SVFPSAVCSLGC, the protein stability index is 0.6895 ± 0.005.

The sequence SVGGSLFLGRRG returned a protein stability index of 0.68 ± 0.072.

With SVLPSLRPGSGL, the protein stability index is 0.707 ± 0.016.

In turn, SVLPSVAGIKSG showed a protein stability index of 0.593 ± 0.046.

SVLTSYFFYLPP returned a protein stability index of 0.6869 ± 0.0046.

Consider SVPHRLLSVPPV, for which the protein stability index is 0.6816 ± 0.0014.

Sequence SVPPRPLALSLL gave a protein stability index of 0.76 ± 0.026.

SVPSLPLSFPPF gave a protein stability index of 0.787 ± 0.032.

SVRGWMILCTGM yielded a protein stability index of 0.562 ± 0.049.

Sequence SVSPPLPPSSIA yielded a protein stability index of 0.673 ± 0.021.

In the case of SVSPPLSFPPSR, the protein stability index amounted to 0.706 ± 0.022.

In turn, SVTLSVSCPMLR gave a protein stability index of 0.708 ± 0.024.

SVVRKDNKLHTV: the protein stability index was determined as 0.596 ± 0.035.

SVWSSIMSVSFL yielded a protein stability index of 0.6179 ± 0.00082.

For the sequence SVYLPLGVLQCI, the protein stability index was 0.577 ± 0.032.

With SWGCSMAKVWVR, the protein stability index is 0.585 ± 0.038.

Sequence SWGEVRRRGCSV showed a protein stability index of 0.637 ± 0.0065.

Sequence SWLASASGSHLI showed a protein stability index of 0.74 ± 0.015.

As to SWSAVPHSPLMP, the protein stability index came to 0.823 ± 0.068.

Consider SWVDGGVRRCGV, for which the protein stability index was 0.662 ± 0.019.

For the sequence SYGPSRPARVPS, the protein stability index is 0.695 ± 0.05.

The sequence SYGRECCGYASA registered a protein stability index of 0.764 ± 0.081.

As for SYLLPHTRFCFL, the protein stability index was 0.674 ± 0.034.

As for SYRTCIRHSNAP, the protein stability index stood at 0.7655 ± 0.0074.

Consider SYRWAFPGVFSG, for which the protein stability index was found to be 0.678 ± 0.031.

The sequence SYVAERVMSRMV yielded a protein stability index of 0.65 ± 0.0087.

SYVLLLYTGCRM showed a protein stability index of 0.585 ± 0.02.

Regarding SYWARCVHTTIA, the protein stability index amounted to 0.669 ± 0.02.

Consider TARRAAARSSQL, for which the protein stability index was found to be 0.742 ± 0.03.

Consider TAVGRKWCGRVL, for which the protein stability index is 0.695 ± 0.028.

Turning to TAYPPAPFRRIN, the protein stability index came out at 0.492 ± 0.057.

As to TCHPLCSSSADR, the protein stability index stood at 0.712 ± 0.039.

In turn, TCLDVFACYASF displayed a protein stability index of 0.666 ± 0.017.

TCRYSSIVDKGS: the protein stability index was found to be 0.612 ± 0.008.

The sequence TCSSQMSSNFRF came in with a protein stability index of 0.638 ± 0.033.

The sequence TDGVVRPQRQAT displayed a protein stability index of 0.69 ± 0.0093.

With TDLPTSMHETRN, the protein stability index was determined as 0.695 ± 0.028.

For TDLSLSPAALRH, the protein stability index is 0.717 ± 0.1.

Regarding TDLSPFPALFSL, the protein stability index is 0.766 ± 0.15.

For the sequence TDNVVAEKRKSK, the protein stability index was determined as 0.701 ± 0.18.

As for TDPKLTRTHENE, the protein stability index worked out at 0.674 ± 0.014.

On to TEGKPQVDPFDH, for which the protein stability index turned out to be 0.704 ± 0.076.

In the case of TEGMISSHRVIH, the protein stability index came out at 0.727 ± 0.058.

TEKAEVSTSSCR: the protein stability index came to 0.71 ± 0.033.

TEKERSKKDELK had a protein stability index of 0.673 ± 0.064.

The sequence TEKWTRSSPMTR gave a protein stability index of 0.764 ± 0.087.

TELCPPDTPTGD yielded a protein stability index of 0.6921 ± 0.0016.

For TELRRRVGYVAL, the protein stability index was 0.663 ± 0.032.

As for TEPHSDQPKKNA, the protein stability index was found to be 0.701 ± 0.14.

TETFARTATRRP returned a protein stability index of 0.587 ± 0.022.

TFGGLRVGFSSL returned a protein stability index of 0.684 ± 0.028.

For the sequence TFHCGPFRLFSC, the protein stability index was 0.6545 ± 0.0055.

In turn, TFLQRFCVGLAL returned a protein stability index of 0.654 ± 0.041.

Turning to TFLVDLLSLFFL, the protein stability index was determined as 0.65 ± 0.046.

Sequence TFRRFKVQQLGN had a protein stability index of 0.561 ± 0.023.

TGAALPRPGPAL: the protein stability index came to 0.659 ± 0.031.

Regarding TGDIKYYKDKLE, the protein stability index is 0.639 ± 0.0097.

TGDTIQNTNCEM: the protein stability index amounted to 0.689 ± 0.027.

For TGFGSLWCRSSG, the protein stability index came to 0.743 ± 0.062.

The sequence TGFGVQRKECGT returned a protein stability index of 0.629 ± 0.0066.

Take TGLRLFRPLSLP: the protein stability index turned out to be 0.776 ± 0.069.

As to TGMRKDLVVSFW, the protein stability index was determined as 0.728 ± 0.051.

In turn, TGSAIVPHQVPS registered a protein stability index of 0.653 ± 0.015.

For TGVRTVCDVGRW, the protein stability index is 0.6648 ± 0.004.

In turn, TGWRGVLGLGPG yielded a protein stability index of 0.674 ± 0.02.

Regarding THHQDGGRAAVR, the protein stability index turned out to be 0.67913 ± 0.00062.

Turning to THPLPAPAPLRP, the protein stability index was found to be 0.762 ± 0.027.

In the case of THPPSLAPPRKA, the protein stability index was 0.712 ± 0.0074.

Take THVPPSPIPPIM: the protein stability index was found to be 0.675 ± 0.0099.

The sequence THYFNIKCSQTK returned a protein stability index of 0.665 ± 0.013.

Regarding THYSTQPKSTKC, the protein stability index was 0.689 ± 0.027.

With TIGVTCSRLGRG, the protein stability index amounted to 0.685 ± 0.014.

Sequence TIIGLVSANEYL registered a protein stability index of 0.582 ± 0.1.

The sequence TIKSATLVSFST displayed a protein stability index of 0.671 ± 0.072.

As for TILPDYTSRILA, the protein stability index turned out to be 0.62 ± 0.012.

In turn, TIRFWRSIFPHA gave a protein stability index of 0.728 ± 0.051.

In turn, TISRRSCGPAQK returned a protein stability index of 0.6743 ± 0.0041.

Turning to TKDRGRVYRQRG, the protein stability index came out at 0.798 ± 0.051.

With TKERERAAGKKT, the protein stability index came out at 0.7005 ± 0.0067.

Consider TKIKKKKNKKQE, for which the protein stability index was determined as 0.731 ± 0.0013.

The sequence TKKETRDKKVER displayed a protein stability index of 0.721 ± 0.0086.

Regarding TKKIKTDTEENN, the protein stability index is 0.701 ± 0.043.

Consider TKRKKKTQEGSR, for which the protein stability index was determined as 0.698 ± 0.045.

TKRKKLEIGFLR returned a protein stability index of 0.625 ± 0.079.

Sequence TKTCPMGVIEIC gave a protein stability index of 0.656 ± 0.0013.

In the case of TKWYDSSKKTNK, the protein stability index came out at 0.688 ± 0.075.

As for TLDGEAILVIYI, the protein stability index was determined as 0.5944 ± 0.0051.

The sequence TLENEKKKKRNT gave a protein stability index of 0.704 ± 0.084.

Turning to TLGGRPFQGTPA, the protein stability index was 0.698 ± 0.016.

In turn, TLGYLPLRSLKI gave a protein stability index of 0.641 ± 0.046.

TLIPPLLRNALP gave a protein stability index of 0.713 ± 0.0066.

In turn, TLMLVTGLSTEV came in with a protein stability index of 0.662 ± 0.01.

The sequence TLPARTIHTTGH registered a protein stability index of 0.717 ± 0.028.

On to TLPPPRPSPSSP, for which the protein stability index worked out at 0.689 ± 0.035.

In the case of TLPSRSPAPLPH, the protein stability index was 0.643 ± 0.021.

For the sequence TLRRPMQVPLGH, the protein stability index is 0.633 ± 0.04.

TLSLGCVDSHGV displayed a protein stability index of 0.696 ± 0.036.

The sequence TLTHKSVRLVVK had a protein stability index of 0.57119 ± 0.00034.

On to TLVNPFYRRFNL, for which the protein stability index is 0.739 ± 0.03.

TLVSCRLVPSSR returned a protein stability index of 0.671 ± 0.056.

In the case of TMFTISGWPLFG, the protein stability index worked out at 0.633 ± 0.044.

TMTGSGRGEKWE returned a protein stability index of 0.733 ± 0.1.

In turn, TNGPSVWYFLVL yielded a protein stability index of 0.575 ± 0.052.

Sequence TNNKKTRNHTSK had a protein stability index of 0.704 ± 0.03.

In the case of TNSGLGTGRRSA, the protein stability index was 0.768 ± 0.02.

As for TNSPTVSGCLQQ, the protein stability index worked out at 0.716 ± 0.07.

For the sequence TNSYRTSVRGER, the protein stability index was 0.795 ± 0.013.

As to TNTPVYRQAPQM, the protein stability index stood at 0.657 ± 0.02.

The sequence TPFLRGTDKTTP yielded a protein stability index of 0.662 ± 0.068.

For the sequence TPLSDQLVPFGC, the protein stability index was 0.708 ± 0.082.

In the case of TPPALPPPSPPA, the protein stability index turned out to be 0.68516 ± 0.00038.
